Experimental data taken from the RNAGym collection of RNA variant scans (doi:10.1073/pnas.2313332121).

B1: TPR t1 (parent)
chain: GACCAAUCUGCCCUCAGAGCUCGAGAACAUCUUCGGAUGCAGAGGAGGCAGGCUUCGGUGGCGCGAUAGCGCCAACGUCCUCAACCUCCAAUGCAUCCCACCACAUGAUGAUGCCUGAAGAGCCUUGGUUUUUUG

Variants of: B1
Experiment: polymerase ribozyme fitness, log enrichment relative to wild type (log ratio); higher = more active; in vitro selection for triplet polymerase activity
Summary of the method: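 In triplicate, a single round of in vitro selection was run on each mutant library, PCR-built and transcribed, covering one subunit of a heterodimeric triplet polymerase ribozyme. Frozen incubation at −7 °C followed annealing with a biotinylated primer, partner subunit and triplets, and extended constructs were then gel-excised, streptavidin-captured and taken through RT-PCR. Fitness is the logarithm of genotype enrichment over wild-type enrichment, from inverse-variance-weighted replicate averages of Illumina-sequenced inputs and outputs. […] only genotypes with ≥10 input reads and ≥1 read per output were kept.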

Variant | polymerase ribozyme fitness (log ratio)
GACCAAUCCGCCCUCAGAGCUCGAGAACAUCUUCGGAUGCAGAGGAGGCAGGCUUCGGUGGCGCGAUAGUGCCAACGUCCUCAACCUCCAAUGCAUCCCACGACAUGAUGAUGCCUGAAGAGCCUUGGUUUUUUG | -6.28
GACCAAUCCGCCAUCAGAGCUCGAGAUCAUCUUCGGAUGCAGACGAGUCAGGCUUCGGUGGUGCGAUAGCGCCAACGUCCUCAACCUCCAAUGCAUCCCACCACAUGAUGAAGCCUGAAGAGCCUUGGUUUUUUG | -2.71
GACCAAUCCGCCCUCAGAGCUCGAGAACAUCUUCGGAUGCAGAGGAGGCAGGCUUCGGUGGCGCGAUAGCGCCAACGUCCUCAACCUCCAAUGCAUCCCACCAUAUGAUGAUGCCUGAAGAACCUUGGUUUUUUG | 0.29
GACCAAUCCGCCCUCAGAGCUCGAGAACAUCUUCGGAUGCAGAGGAGGCAGGCUUCGGUGGCGAGAAAGCGCUAACGUCCUCAAUCUCCAAUGCAUCCCACCACAUGAUGAUGCCUGAACAGCCUUGGUUUUUUG | -6.47
GACCAAUCCGCUCUCAGAGCUCGAGAACAUCUUCGGAUUCAGAGGAGGCAGGCUUCGGUGGCGCGAUAGAGCCAACGUCCUCAACCUCCAAUGCAUCCCACCACAUGAUGUUGCCUGAAGAGCAUUGGUUUUUUG | -5.75
GACCAAUCCGCCCUCAGAGCUCGAGAACAUCUUCGGAUGCAGAGGAGGCAGGCUUCGGUGGCGCGAUAGCGCCAACGUCCUCAACCUCAAAUGCAUCCCACCACAUGAUGAUGCCUGAAGAGCCUUGGUUUUUUG | -0.733
GACCAAUCCGCCCUCAGAGCUCGAGAACAUCUUUGGAUGCAGAGGAGGCAGGCUUCGGUGGCGCGAUAUCGUCAACGUCCUCAACCUCCAAUGCAUCCCAACACAUGAUGAUGCCUAAAGAGCCAUGGUGUUUUG | -6.7
GACCAAUCCGCCCUCAGAGCUCGAGAACAUCUUCGGAUGGAGAGGAGGCAGGCUUCGGUGGCUCGAUAUCGCCAACGUGCUUAACCUCCAAUGCAUCCCACCACAUGAUGAUGCCUGUGGAGCCUUGGUUUUUUU | -4.3
GACCAAUCCGCCCUCAGAGCUCGAGAACAUCUUCGGAUGUAGAGGAGGCAGGCUUCGGUGGGGCGAUAGCGCCAACGUCCUCAACCUCCAAUGCAUCCCACCACAUGAUGAUGCCUCAAGAGCCUUGGUUUUUUG | -5.48
GACCAAUCCGCCCUCAGAGCUCGAGAACAUCUUCGGAUGCAGAGGAGGCAGGCUUCGGUGGCGCGAUAGCGCCAACGUCCUCAACCUCCAAUGCAUCCUACCACAUGAUGAUGCCUGAAGAGCCUUGGUUUUUUG | -1.75
GACCAAUCCGCGCUCAGAGCUCGAGAACAUCUUCGGAUGCAGAGGAGGCAGGGUUCGGUGGUGCGAUAGCGCCAACGUCCUCAACCUCCAAUGCAUCCCACCACAUGAUGAUGCCUGAAGAGCCUUGGUUUUUUG | -0.499
GACCAAUCCGCCCUCAGAGCUCGAGAACAUCUUCGGAUGCAGAGGAGGCAGGCUUCGGUGGCGCGAUAGGGCCAACGUCCUCAACCUCCAAUGCAUCCCACCACAUGAUGAUGCCUGAAGAGCCUUGGUUUUUUG | -1.43
GACCAAUCCGCCCUGAGAGCUCGAGAACAUCUUCGGAUGCAGUGGAGGCAGGCUUCGGUGGCGCGAUAGCGCCAACGUCCUCAACCUCCAAUGCAUCCCACCACAUGAUGAUGCCUGAAGAGCCUUGGUUCUUUG | -2.2
GACCAAUCCGCCCUCAGAGCUCGAGAACAUCUUCGGAUGCAGAGGAGGCAGGCUUCGGUGGCGCGAUAGCGCCAACGUACUCAACCUCCAAUGCAUCCCACCACAUGAUGAUGCCUGAAGAGCCUUGCUUUUUUG | -2.56
GACCAAUCCGCCCUCAGAGCUCGAGAACAUCUUCGGAUGAAGAGGAGGCAGGCUUCGGUGGCGCGAUAGCGCCAACGUCCUCAACCUCCAAUGCAUCCCACCACAUGAUGAUGCCUGAAGAGCCUUGGUAUUUUG | -0.631
GACCAAUCCGCCCUCAGAGCUGGAGAACAUGUUCGGAGGCAGAGGAGGCAGGCUUCGGUGGCGCGAUAGCGCCAACGUCCUCAACCUCCAAUGCAUCCCACCACAUGAUGAUGCCUGAAGUGCCUUGGUUUUUUG | -6.73
GACCAAUCCGCCCUCAGAGCUUGAGAACAUCUUAGGAUGCAGGGGAGGCAGGCUUCGGUGGCGCGAUAGCGCCAACAUCCUCAACCUCCAAUGCAUCCCACCACAAGAUGAUGCCUGAAGAGCCUUGGUUUUUUG | -7.59
GACCAAUCCGCCCUCAGAGCUCGAGAACAUCUUCGGAUGCAGAGGAGGCAGGCUUCGGUGGCGCGAUAGCGACAAUUUCCUCAACCUCCAAUGCAUCCCACCACAUGAUGAUGCCUGAAGAGCCUUGGUUUUUUG | -2.24
GACCAAUCCGCGGUCAGAGCUCGAGAACAUCUUCGGAUGCAGAGGAGGCCGGCUUCGGUGGCGCGAUAGUGCCAAAGACCUCAAUCUCCAAUGCAUCCCACCACAUGAUGAUGCCUGAAGAGCCUUGGUUUUUUG | -2.55
GACCAAUCCGCCCUCAGAGCUCGAGAACAUCUUCGGAUGUAGGGGAGGGAGGCUUCGGUGGCGCGAUAGCGCCAACGUCCUCAACCUCCAAUGCAGCCCACCACAUGAUGAUGCCUGAGGAGCCUUGGUUAUUUG | -3.12
GACCAAUCCGCACUCAGAGCACGAGAACAUCUUCGGAUGCAGAGGAGGCAGGCUUCGGUGGCGCGAUAGCGCCAACGUCAUCAACCACCAAUUCAUCCCACCACAUGAUGAUGCCUGAAGUGCCUGGGUUUUUUG | -5.57

Variant | polymerase ribozyme fitness (log ratio)
GACCAAUCCGCCCUCAGAGCUCGAGAACAUCUUCGGAUGCAGAGGAGGCAGGCUUCGGUGGCGCGAUAGCGCUAACGUCCUCAAUCUCCAAUGCAUCCCACCACAUGAUGAUGCCUGAACAGCCUUGGUUUUUUG | 1.44
GACCAAUCCGCCCUCAGAGCUCGAGAACAUCUUCGGAUGCAGAGGAGGCAGGCUUCGGUGGCGCGAUAGCGCCAACGUCCUCAACCUCCAAUGCAUCCAAUCACAUGAUGAUGCCUGAAGAGCCUUGGUUUCUUG | -6.34
GACCAAUCCGCCCUCAGAGGUCGAGAACAUCUUCGGAUGCAGAGGAGGCAGGCUUCGGUGGCGCGAUAGCGCCAACGUCCUCAACCUCCAAUGCAUCCCAUCACAUGAUGAUUCCUGAAGAGCCUUGGUUUUUUG | -0.203
GACCAAUCCGCCUUCAGAGCUCGAGAACAUCUUCGGCUUCAGAGGAGGCAGGCUUCGGUGGCGCGAUAGCGCCAACGUCCUCAACCUCCAAUACAUCCCACCACAUGAUGAUGCCUGAAGAGCCUUGGUUUUUUG | -5.35
GACCAAUCCGCCCUCAGAGCUCGAGAACAUCUUCGGAUGCAGAGGAGGAAGGUUUCGGUGGCGCGAUAGCGCCAACGUCCUCAACCUUCAAUGCAUCCCACCACAUGAUGAUGCCUGAAGAGCCUUGGUUUUAUG | -0.445
GACCAAUCCGCCCUCAGAGCUCGAGAACAUCUUCGGAUGCAGAGGAGGCAGGCUUCGGUGGCGCGAUAGCGUCAACGUCCUCAACCUCCAAUGCAUCCCACAACAUGAUGAUGCCUGAAGAGCCUUGGUUUUUUG | -1.5
GACCAAUCCGCCCUCAGAGCUCGAGAACAUCUUCGGAUGCAGAGGAGGCAGGCUUCGGUGGCGCGAUAGCGCAUACGUCCUCAACCUCCAAUGCAUCCCACCACAUGAUGAUGCCUGAAGAGCCUUGGUUUUUUG | 0.19
GACCAAUCCGCCCUCAGAGCUCGAGAACAUCUUCGGAUGAACAGGAGGCAGGCUUCGGUGGCGCGAUAGCGCAAACGUCCUCAACCUCCAAUGCAUCCCAACACAUGAUGAUGCCUGAAGAACCUUGGUAUUUUG | -1.67
GACCAAUCCGCCCUGAGAGCUCGAGAACAUCUUCGGAUGCAGAGGAGGCAGGCUUCGGUGGCGCGAUAGCGCCAACGGCCUCAACCUCCAAUGCACCCCACCACAUGAUGAUGCCUGAAGAGCUUUGGUUUUUUG | -0.775
GACCAAUCCGCCCUCAGAGCUCGAGAACAUCUUCGGAUGCAGAGGAGGCAGGCUUCGGUGGAGCGAUAGCGCCAGCGUCCUCAACCUCCAAUGAAUCCCACCACAUGAUAAUGCCUGAAGAGCCUUGGUUUUUUG | -4.36
GACCAAUCCGCCCUCAGAGCUCGAGAACAUCUUCGGAUGCAGAGGAGGCAGGCUUCGGUGGCGCGAUAGCGCCAACGUCCUCAACCUCCAAUGAAUCCCCCCACAUGAUGAUGCCUGAAGAGCCUUCGUUUUUUU | -3
GACCAAUCCGCCAUCAGAGCUCGAGAACAUCUUCGGAUGCAGAGGAGGCGGGCUUCGGUGGCGCGAUAGCGUCAACGUCCUCAUCCUCAAAUGCAUCUCACAACAUGAUGAUGCCUGAAGAGCCUUGGUUUUUUG | -6.4
GACCAAUCCGCCCUCAGAGCUCGAGAACAUCUUCGGAUGCAGAGGAGGCAGGCUUCGGUGGCGCGAUAGCGCCAACGUCCUCAACAUCCAAUGCAUCCAACCACAUGAUGAUGCCUGAAGAGCCUUGGUUUUUUG | -5.49
GACCAAUCCGCCCUCAGAGCUCGAGAACAUCUUCGGAUGCAGAGGAGGUAGGCUUCGGUGGCGCGAUAGCGCCAACGUCCUCAACCUCCAAUGCAUCCCACCACAUGAUGAUGCCUGAAGAGCCUUGGUUUUUUG | 0.0306
GACCAAUCCGCCCUCAGAGCUCGAGAACAUCUUCGGAUGCAGAGGAGGCAGGCUUCGGUGGCGCGAUAGCGCCAACGUCCUCAACCUCCAAUGCAUCCCACCAUAUGAUGAUGCCUGAAGAGCCUUGGUUUUUUG | 0.605
GACCAAUCCGCCCUCAGAGCUCGAGAACAUCUUCGGAUGCAGAGGAGGCAGGCUUGGGUGGUGCGAUAGCGCCAACGUCCUCAACCUCCAAUGCAUCCCACCACAUGAUGAUGCCUGAAGAGCCUUGGUUUUUUG | 0.103
GACCAAUCCGCCCUCAGAGCUCGAGAACAUCUUCGGAUGCAGAGGAGGCAGGCUUGGGUGGCGCGAUAGCGCCAACGUCCUCAACCUGCAAUGCAUCCCACCACAUGAUGAUGCCUGAAGAGCCUUGGUUUUUUG | -1.64
GACCAAUCCGCCCUUAGAGCUCGAGAACAUCUUCGGAUGCACAGGAGGCAGGCUUCGGUGGCGCGAUAGCGCCAACGUCCUCAACCUCCAAUGCAUCCCACCACAUGAUGAUGCCUGAAGAGCCUUGGUUUUUUG | -0.305
GACCAAUCCGCCCUCAGAGCUCGAGAACAUCUUCGGAUGCAGAGGAGGCAGGCUUCGGUGGCGCGAUAGCGCUAACGUCCUCAACCUCCAAUGCAUCCCACCACAUGAUGAUGCCUGAAGAGCCUUGGUUUUUUG | 0.362
GACCAAUCCGCCCUCAGAGCUUGAGAACAUCUUCGGAUGCAGAGGAGGCAGGCUUCGAUGCCGCGAUAGCGCCAACGUCCUCAACCUCCAAUGCAUCCCACCACAUGAUGAUGACUGAAGAGCCUUGGUUUUUUG | -4.7
GACCAAUCCGCCCUCAGAGCUCGAGAACAUCUUCGGAUGCAGAGGAGGCAGGCUUAGGUGGCGCGAUAGCGCCAACGUCCUCCACCUCCAAUGCAUCCCACCACAUGAUGAUGCCUGAAGAGCCUUGGUUUUUUG | 0.00737
